The stoichiometry N is a count of units in the complex or per binding partner.

“And” between values parts separate entries of the source, which are not always exact repeats. Identical values can stand only once.

Data set [1] concerns the molecule itself. The data set is described as follows: negative staining EM.
Data set [2] deals with the molecule itself. The data set is described as follows: SAXS.

B1: Twinkle (human mitochondrial replicative helicase), aa 30-684, produced in SF9 insect cells (enzyme, UniProt Q96RR1 30-684, looked up)
chain: NLAPGPPRRRYRKETLQALDMPVLPVTATEIRQYLRGHGIPFQDGHSCLRALSPFAESSQLKGQTGVTTSFSLFIDKTTGHFLCMTSLAEGSWEDFQASVEGRGDGAREGFLLSKAPEFEDSEEVRRIWNRAIPLWELPDQEEVQLADTMFGLTKVTDDTLKRFSVRYLRPARSLVFPWFSPGGSGLRGLKLLEAKCQGDGVSYEETTIPRPSAYHNLFGLPLISRRDAEVVLTSRELDSLALNQSTGLPTLTLPRGTTCLPPALLPYLEQFRRIVFWLGDDLRSWEAAKLFARKLNPKRCFLVRPGDQQPRPLEALNGGFNLSRILRTALPAWHKSIVSFRQLREEVLGELSNVEQAAGLRWSRFPDLNRILKGHRKGELTVFTGPTGSGKTTFISEYALDLCSQGVNTLWGSFEISNVRLARVMLTQFAEGRLEDQLDKYDHWADRFEDLPLYFMTFHGQQSIRTVIDTMQHAVYVYDICHVIIDNLQFMMGHEQLSTDRIAAQDYIIGVFRKFATDNNCHVTLVIHPRKEDDDKELQTASIFGSAKASQEADNVLILQDRKLVTGPGKRYLQVSKNRFDGDVGVFPLEFNKNSLTFSIPPKNKARLKKIKDDTGPVAKKPSSGKKGATTQNSEICSGQAPTPDQPDTSKRSK
Turning to B1, in data set [1], the “stoichiometry N” value is 6 and 7.

B2: Twinkle (human mitochondrial replicative helicase), mature, aa 43-684, produced in E. coli (enzyme, UniProt Q96RR1 43-684, looked up)
chain: ETLQALDMPVLPVTATEIRQYLRGHGIPFQDGHSCLRALSPFAESSQLKGQTGVTTSFSLFIDKTTGHFLCMTSLAEGSWEDFQASVEGRGDGAREGFLLSKAPEFEDSEEVRRIWNRAIPLWELPDQEEVQLADTMFGLTKVTDDTLKRFSVRYLRPARSLVFPWFSPGGSGLRGLKLLEAKCQGDGVSYEETTIPRPSAYHNLFGLPLISRRDAEVVLTSRELDSLALNQSTGLPTLTLPRGTTCLPPALLPYLEQFRRIVFWLGDDLRSWEAAKLFARKLNPKRCFLVRPGDQQPRPLEALNGGFNLSRILRTALPAWHKSIVSFRQLREEVLGELSNVEQAAGLRWSRFPDLNRILKGHRKGELTVFTGPTGSGKTTFISEYALDLCSQGVNTLWGSFEISNVRLARVMLTQFAEGRLEDQLDKYDHWADRFEDLPLYFMTFHGQQSIRTVIDTMQHAVYVYDICHVIIDNLQFMMGHEQLSTDRIAAQDYIIGVFRKFATDNNCHVTLVIHPRKEDDDKELQTASIFGSAKASQEADNVLILQDRKLVTGPGKRYLQVSKNRFDGDVGVFPLEFNKNSLTFSIPPKNKARLKKIKDDTGPVAKKPSSGKKGATTQNSEICSGQAPTPDQPDTSKRSK
Consider B2, for which the “stoichiometry N” value in data set [2] came to 7; in data set [1], 6.

The record behind these values is publication PMC4417153 (Nucleic Acids Research, 2015).
